Reference: patent publication US20240117030A1 (Pfizer, published 2024)

T1: recombinant human IL-4 (human, UniProt P05112 25-153)
T1 sequence (looked up): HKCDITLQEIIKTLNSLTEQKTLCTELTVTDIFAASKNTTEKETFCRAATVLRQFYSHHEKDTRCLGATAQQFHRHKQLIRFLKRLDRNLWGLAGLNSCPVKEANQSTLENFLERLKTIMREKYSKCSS

T2: human IL-33 mm2 Cys (human, UniProt O95760 112-270, limits assumed)
T2 sequence (looked up): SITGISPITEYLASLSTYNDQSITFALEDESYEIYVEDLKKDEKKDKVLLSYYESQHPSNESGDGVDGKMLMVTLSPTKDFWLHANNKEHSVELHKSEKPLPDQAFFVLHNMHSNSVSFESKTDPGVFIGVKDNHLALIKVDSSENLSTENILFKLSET

T3: recombinant human IL-33 (R&D Systems 3625-IL), reduced with DTT (human, UniProt O95760 112-270, limits assumed)
T3 sequence (looked up): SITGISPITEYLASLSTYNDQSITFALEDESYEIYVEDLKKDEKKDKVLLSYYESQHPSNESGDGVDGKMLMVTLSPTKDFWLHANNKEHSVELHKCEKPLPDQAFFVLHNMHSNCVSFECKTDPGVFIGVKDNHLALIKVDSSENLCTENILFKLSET

B1: IL413TSLP-0001 (other)
heavy: EVTLRESGPALVKPTQTLTLTCTFSGFSLSNFGEGLSWIRQPPGKGLEWLAHIYWDDDKRYNPSLKSRLTISKDTSRNQVVLTMTNMDPVDTATYYCARRETVFYWYFDVWGQGTTVTVSSASTKGPSVFPEAPSSKSTSGGTAALGCLVKDYFPEPVTVSWNSGALTSGVHTFPAVLQSSGLYSLGSVVTVPSSSLGTQTYICNVNHKPSNTKVDKKVEPKSCDKTHTCPPCPAPEAAGAPSVFLFPPKPKDTLMISRTPEVTCVVVDVSHEDPEVKFNWYVDGVEVHNAKTKPREEQYNSTYRVVSVLTVLHQDWLNGKEYKCKVSNKALPAPIEKTISKAKGQPREPQVYTLPPCREEMTKNQVSLSCAVKGFYPSDIAVEWESNGQPENNYKTTPPVLDSDGSFFLVSKLTVDKSRWQQGNVFSCSVMHEALHNHYTQKSLSLSPGK
chain 1: QMQLVESGGGVVQPGRSLRLSCAASGFTFRTYGMHWVRQAPGKGLEWVAVIWYDGSNKHYADSVKGRFTITRDNSKNTLNLQMNSLRAEDTAVYYCARAPQWELVHEAFDIWGQGTMVTVSSGQPKAAPSVTLFPPSSEELQANKATLVCLISDFYPGAVTVAWKADSSPVKAGVETTTPSKQSNNKYAASSYLSLTPEQWKSHRSYSCQVTHEGSTVEKTVAPTECSGGGGSEVQLVESGGGLVQPGGSLRLSCAASGFTFSSYAMSWVRQAPGKGLEWVASISSGDTTYYPDSVKGRFTISRDNAKNSLYLQMNSLRAEDTAVYYCARNEGYYFGLTLWGQGTLVTVSSASTKGPSVFPKAPSSKSTSGGTAALGCLVKDYFPEPVTVSWNSGALTSGVHTFPAVLQSSGLYSLSSSVTVPSSSLGTQTYICNVNHKPSNTKVDKKVEPKSCDKTHTCPPCPAPEAAGAPSVFLFPPKPKDTLMISRTPEVTCVVVDVSHEDPEVKFNWYVDGVEVHNAKTKPREEQYNSTYRVVSVLTVLHQDWLNGKEYKCKVSNKALPAPIEKTISKAKGQPREPQVCTLPPSREEMTKNQVSLWCLVKGFYPSDIAVEWESNGQPENNYKTTPPVLDSDGSFFLYSKLTVDKSRWQQGNVFSCSVMHEALHNHYTQKSLSLSPGK
light 1: DIQMTQSPSSLSASVGDRVTITCKASQSVDEDGDSYMNWYQQKPGKAPKLLIYAASNLESGVPSRFSGSGSGTDFTLTISSLQPEDFATYYCQQSNEDPPTFGGGTKVEIKRTVAAPSVFIFPPSDEQLKSGTASVSCLLNNFYPREAKVQWKVDNALQSGNSQESVTEQDSKDSTYSLKSTLTLSKADYEKHKVYACEVTHQGLSSPVTKSFNRGEC
light 2: DIQMTQSPSSLSASVGDRVTITCKASESVDHFGWSLVHWYQQKPGKAPKLLIYRASNLESGVPSRFSGSGSGTDFTLTISSLQPEDFATYYCQQSNEDPWTFGGGTKVEIKRTVAAPSVFIFPPSDEQLKSGTASVSCLLNNFYPREAKVQWKVDNALQSGNSQESVTEQDSKDSTYSLDSTLTLSKADYEKHKVYACEVTHQGLSSPVTKSFNRGEC
chain 2: SYVLTQPPSVSVAPGQTARITCGGNNLGSKSVHWYQQKPGQAPVLVVYDDSDRPSWIPERFSGSNSGNTATLTISRGEAGDEADYYCQVWDSSSDHVVFGGGTKLTVLASTKGPSVFPLAPSSKSTSGGTAALGCLVKDYFPEPVTVSWNSGALTSGVHTFPAVLQSSGLYSLSSVVTVPSSSLGTQTYICNVNHKPSNTKVDKKVEPKSC
B2: IL413TSLP-0007 (other)
heavy: EVTLRESGPALVKPTQTLTLTCTFSGFSLSNFGEGLSWIRQPPGKGLEWLAHIYWDDDKRYNPSLKSRLTISKDTSRNQVVLTMTNMDPVDTATYYCARRETVFYWYFDVWGQGTTVTVSSASTKGPSVFPEAPSSKSTSGGTAALGCLVKDYFPEPVTVSWNSGALTSGVHTFPAVLQSSGLYSLGSVVTVPSSSLGTQTYICNVNHKPSNTKVDKKVEPKSCDKTHTCPPCPAPEAAGAPSVFLFPPKPKDTLMISRTPEVTCVVVDVSHEDPEVKFNWYVDGVEVHNAKTKPREEQYNSTYRVVSVLTVLHQDWLNGKEYKCKVSNKALPAPIEKTISKAKGQPREPQVYTLPPCREEMTKNQVSLSCAVKGFYPSDIAVEWESNGQPENNYKTTPPVLDSDGSFFLVSKLTVDKSRWQQGNVFSCSVMHEALHNHYTQKSLSLSPGK
chain 1: SYVLTQPPSVSVAPGQTARITCGGNNLGSKSVHWYQQKPGQAPVLVVYDDSDRPSWIPERFSGSNSGNTATLTISRGEAGDEADYYCQVWDSSSDHVVFGGGTKLTVLASTKGPSVFPLAPSSKSTSGGTAALGCLVKDYFPEPVTVSWNSGALTSGVHTFPAVLQSSGLYSLSSVVTVPSSSLGTQTYICNVNHKPSNTKVDKKVEPKSCGGGGSEVQLVESGGGLVQPGGSLRLSCAASGFTFSSYAMSWVRQAPGKGLEWVASISSGDTTYYPDSVKGRFTISRDNAKNSLYLQMNSLRAEDTAVYYCARNEGYYFGLTLWGQGTLVTVSSASTKGPSVFPKAPSSKSTSGGTAALGCLVKDYFPEPVTVSWNSGALTSGVHTFPAVLQSSGLYSLSSSVTVPSSSLGTQTYICNVNHKPSNTKVDKKVEPKSCDKTHTCPPCPAPEAAGAPSVFLFPPKPKDTLMISRTPEVTCVVVDVSHEDPEVKFNWYVDGVEVHNAKTKPREEQYNSTYRVVSVLTVLHQDWLNGKEYKCKVSNKALPAPIEKTISKAKGQPREPQVCTLPPSREEMTKNQVSLWCLVKGFYPSDIAVEWESNGQPENNYKTTPPVLDSDGSFFLYSKLTVDKSRWQQGNVFSCSVMHEALHNHYTQKSLSLSPGK
light 1: DIQMTQSPSSLSASVGDRVTITCKASQSVDEDGDSYMNWYQQKPGKAPKLLIYAASNLESGVPSRFSGSGSGTDFTLTISSLQPEDFATYYCQQSNEDPPTFGGGTKVEIKRTVAAPSVFIFPPSDEQLKSGTASVSCLLNNFYPREAKVQWKVDNALQSGNSQESVTEQDSKDSTYSLKSTLTLSKADYEKHKVYACEVTHQGLSSPVTKSFNRGEC
light 2: DIQMTQSPSSLSASVGDRVTITCKASESVDHFGWSLVHWYQQKPGKAPKLLIYRASNLESGVPSRFSGSGSGTDFTLTISSLQPEDFATYYCQQSNEDPWTFGGGTKVEIKRTVAAPSVFIFPPSDEQLKSGTASVSCLLNNFYPREAKVQWKVDNALQSGNSQESVTEQDSKDSTYSLDSTLTLSKADYEKHKVYACEVTHQGLSSPVTKSFNRGEC
chain 2: QMQLVESGGGVVQPGRSLRLSCAASGFTFRTYGMHWVRQAPGKGLEWVAVIWYDGSNKHYADSVKGRFTITRDNSKNTLNLQMNSLRAEDTAVYYCARAPQWELVHEAFDIWGQGTMVTVSSGQPKAAPSVTLFPPSSEELQANKATLVCLISDFYPGAVTVAWKADSSPVKAGVETTTPSKQSNNKYAASSYLSLTPEQWKSHRSYSCQVTHEGSTVEKTVAPTECS
B3: IL413TSLP-0002 (other)
heavy: EVQLVESGGGLVQPGGSLRLSCAASGFTFSSYAMSWVRQAPGKGLEWVASISSGDTTYYPDSVKGRFTISRDNAKNSLYLQMNSLRAEDTAVYYCARNEGYYFGLTLWGQGTLVTVSSASTKGPSVFPKAPSSKSTSGGTAALGCLVKDYFPEPVTVSWNSGALTSGVHTFPAVLQSSGLYSLSSSVTVPSSSLGTQTYICNVNHKPSNTKVDKKVEPKSCDKTHTCPPCPAPEAAGAPSVFLFPPKPKDTLMISRTPEVTCVVVDVSHEDPEVKFNWYVDGVEVHNAKTKPREEQYNSTYRVVSVLTVLHQDWLNGKEYKCKVSNKALPAPIEKTISKAKGQPREPQVCTLPPSREEMTKNQVSLWCLVKGFYPSDIAVEWESNGQPENNYKTTPPVLDSDGSFFLYSKLTVDKSRWQQGNVFSCSVMHEALHNHYTQKSLSLSPGK
chain 1: QMQLVESGGGVVQPGRSLRLSCAASGFTFRTYGMHWVRQAPGKGLEWVAVIWYDGSNKHYADSVKGRFTITRDNSKNTLNLQMNSLRAEDTAVYYCARAPQWELVHEAFDIWGQGTMVTVSSGQPKAAPSVTLFPPSSEELQANKATLVCLISDFYPGAVTVAWKADSSPVKAGVETTTPSKQSNNKYAASSYLSLTPEQWKSHRSYSCQVTHEGSTVEKTVAPTECSGGGGSEVTLRESGPALVKPTQTLTLTCTFSGFSLSNFGEGLSWIRQPPGKGLEWLAHIYWDDDKRYNPSLKSRLTISKDTSRNQVVLTMTNMDPVDTATYYCARRETVFYWYFDVWGQGTTVTVSSASTKGPSVFPEAPSSKSTSGGTAALGCLVKDYFPEPVTVSWNSGALTSGVHTFPAVLQSSGLYSLGSVVTVPSSSLGTQTYICNVNHKPSNTKVDKKVEPKSCDKTHTCPPCPAPEAAGAPSVFLFPPKPKDTLMISRTPEVTCVVVDVSHEDPEVKFNWYVDGVEVHNAKTKPREEQYNSTYRVVSVLTVLHQDWLNGKEYKCKVSNKALPAPIEKTISKAKGQPREPQVYTLPPCREEMTKNQVSLSCAVKGFYPSDIAVEWESNGQPENNYKTTPPVLDSDGSFFLVSKLTVDKSRWQQGNVFSCSVMHEALHNHYTQKSLSLSPGK
light 1: DIQMTQSPSSLSASVGDRVTITCKASESVDHFGWSLVHWYQQKPGKAPKLLIYRASNLESGVPSRFSGSGSGTDFTLTISSLQPEDFATYYCQQSNEDPWTFGGGTKVEIKRTVAAPSVFIFPPSDEQLKSGTASVSCLLNNFYPREAKVQWKVDNALQSGNSQESVTEQDSKDSTYSLDSTLTLSKADYEKHKVYACEVTHQGLSSPVTKSFNRGEC
light 2: DIQMTQSPSSLSASVGDRVTITCKASQSVDEDGDSYMNWYQQKPGKAPKLLIYAASNLESGVPSRFSGSGSGTDFTLTISSLQPEDFATYYCQQSNEDPPTFGGGTKVEIKRTVAAPSVFIFPPSDEQLKSGTASVSCLLNNFYPREAKVQWKVDNALQSGNSQESVTEQDSKDSTYSLKSTLTLSKADYEKHKVYACEVTHQGLSSPVTKSFNRGEC
chain 2: SYVLTQPPSVSVAPGQTARITCGGNNLGSKSVHWYQQKPGQAPVLVVYDDSDRPSWIPERFSGSNSGNTATLTISRGEAGDEADYYCQVWDSSSDHVVFGGGTKLTVLASTKGPSVFPLAPSSKSTSGGTAALGCLVKDYFPEPVTVSWNSGALTSGVHTFPAVLQSSGLYSLSSVVTVPSSSLGTQTYICNVNHKPSNTKVDKKVEPKSC
B4: IL33-0216 (antibody, human IgG1, kappa, V domains shown)
VH: EVQLVESGGGLVQPGGSLRLSCAASGFTFSSYWMYWVRQAPGKGLEWVAAITPNAGEDYYPESVKGRFTISRDNAKNSLYLQMNSLRAEDTAVYYCARGHYYYTSYSLGYWGQGTLVTVSS
VL: DIQMTQSPSSLSASVGDRVTITCKASQNIDKHLDWYQQKPGKAPKLLIYFTNNLQTGVPSRFSGSGSGTDFTLTISSLQPEDFATYYCFQYNQGWTFGGGTKVEIKR

What was measured:
Test in all cases: cell-based or functional assay
[1] = target: T1, recombinant human IL-4
[2] = target: recombinant human TSLP (glycosylated long form) (human, UniProt Q969D9 29-159)
[3] = target: recombinant human IL-13 (human, UniProt P35225 35-146)
[4] = target: T2, human IL-33 mm2 Cys
[5] = target: T3, recombinant human IL-33 (R&D Systems …)

Sequence of recombinant human IL-13 (P35225 35-146 limits assumed): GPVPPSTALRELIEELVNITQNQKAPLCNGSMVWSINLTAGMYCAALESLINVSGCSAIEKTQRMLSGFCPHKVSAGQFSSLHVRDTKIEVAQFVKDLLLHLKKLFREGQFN

Binder	a-hIL-4 bioassay IC50, pM) [1] [pM]	a-TSLP TARC bioassay (IC50; pM) [2] [pM]	a-hIL-13 bioassay (IC50, pM) [3] [pM]	IC50 [pM] versus human IL-33 mm2 Cys (HEK-Blue SEAP) [4] [pM]	IC50 [pM] versus human reduced IL-33 (R&D), Experiment 1 (HEK-Blue SEAP) [5] [pM]	IC50 [pM] versus human reduced IL-33 (R&D), Experiment 2 (HEK-Blue SEAP) [5] [pM]
B1	7.15	12.6	47	–	–	–
B2	7.09	11.7	46.8	–	–	–
B3	8.59	16.4	10.6	–	–	–
B4	–	–	–	237	~677	~1240
